US20030073218

Tested on: RR-Src peptide

| Substance | KM (mM) for protein substrate RR-Src, ATP saturated | KM (mM) for protein substrate RR-Src, N^6-(cyclopentyl)ATP saturated |
| --- | --- | --- |
| GST-XD4(V323A, I338A) | 3.1 mM | 2.1 mM |
| GST-XD4 (glutathione S-transferase fusion of the XD4 fragment of v-Src, wild-type catalytic domain) | 2.6 mM | – |
